Columns and labels:
[1] = target: the molecule itself; assay: size exclusion chromatography; self-association of H-NOX+foldon monomers into a homotrimer
[2] = target: the molecule itself; assay: analytical size exclusion chromatography (Superdex 200 10/300 GL); self-association into a homotrimer

| Protein | binding result [1] | binding result [2] |
| --- | --- | --- |
| H-NOX variant L144F-foldon fusion protein with no His6 tag at the C-terminus (monomer unit of the trimer) (other, non-covalently bound heme cofactor is not carried by the letters, No His6 tag; also called H-NOX+foldon; L144F H-NOX trimer without His6) MKGTIVGTWIKTLRDLYGNDVVDESLKSVGWEPDRVITPLEDIDDDEVRRIFAKVSEKTGKNVNEIWREVGRQNIKTFSEWFPSYFAGRRLVNFLMMMDEVHLQLTKMIKGATPPRLIAKPVAKDAIEMEYVSKRKMYDYFLGFIEGSSKFFKEEISVEEVERGEKDGFSRLKVRIKFKNPVFEYKKNLEGSGGYIPEAPRDGQAYVRKDGEWVLLSTFL | binds |  |
| Thermoanaerobacter tengcongensis L144F H-NOX-foldon-His6 fusion protein (monomer unit) (other, heme (porphyrin IX) cofactor bound non-covalently (so in the source), 229 amino acids, 26,677 AMU as a monomer; Three of these chains associate through the foldon domain to form the about 80 kDa H-NOX trimer; It is entered as the monomer unit so that the self-association can be written as a pair; also called H-NOX-foldon fusion protein; H-NOX-foldon protein) MKGTIVGTWIKTLRDLYGNDVVDESLKSVGWEPDRVITPLEDIDDDEVRRIFAKVSEKTGKNVNEIWREVGRQNIKTFSEWFPSYFAGRRLVNFLMMMDEVHLQLTKMIKGATPPRLIAKPVAKDAIEMEYVSKRKMYDYFLGFIEGSSKFFKEEISVEEVERGEKDGFSRLKVRIKFKNPVFEYKKNLEGSGGYIPEAPRDGQAYVRKDGEWVLLSTFLRGSHHHHHH |  | binds |
